{"source": "paper PMC4413027", "about": "(Nature Communications, 2015)", "binders": {"B1": {"name": "Human cyclin B1, residues 165–433 carrying the C167S/C238S/C350S mutations (domain or fragment)", "chain": "GSHMNLSSEYVKDIYAYLRQLEEEQAVRPKYLLGREVTGNMRAILIDWLVQVQMKFRLLQETMYMTVSIIDRFMQNNSVPKKMLQLVGVTAMFIASKYEEMYPPEIGDFAFVTDNTYTKHQIRQMEMKILRALNFGLGRPLPLHFLRRASKIGEVDVEQHTLAKYLMELTMLDYDMVHFPPSQIAAGAFSLALKILDNGEWTPTLQHYLSYTEESLLPVMQHLAKNVVMVNQGLTKHMTVKNKYATSKHAKISTLPQLNSALVQDLAKAVAKV", "notes": "artefact left N-terminal to N165 after thrombin cleavage of the hexa-histidine tag; cyclin B1, human, residues 165–433 (begins at N165); not shown: His6, N-terminal, cleaved"}}, "molecular_target": "T1, Full-length human CDK1 from a 3C-protease cleavable GST fusion (GPLGS left at the N terminus), … (human, UniProt P06493 1-297)", "T1 construct": "short cloning artefact left at the N terminus after 3C cleavage of the GST fusion; CDK1, human, full length; also called GST-CDK1 (before cleavage); unphosphorylated CDK1; source: insect cells (Sf9, baculovirus pVL1393GST-CDK1), purified (glutathione-sepharose 4B, GST-3C cleavage, SEC); for ITC treated with λ-phosphatase and purified again by SEC; not shown: GST, N-terminal, cleaved", "T1 sequence (P06493 other isoform, or with tags, fused parts or gaps)": "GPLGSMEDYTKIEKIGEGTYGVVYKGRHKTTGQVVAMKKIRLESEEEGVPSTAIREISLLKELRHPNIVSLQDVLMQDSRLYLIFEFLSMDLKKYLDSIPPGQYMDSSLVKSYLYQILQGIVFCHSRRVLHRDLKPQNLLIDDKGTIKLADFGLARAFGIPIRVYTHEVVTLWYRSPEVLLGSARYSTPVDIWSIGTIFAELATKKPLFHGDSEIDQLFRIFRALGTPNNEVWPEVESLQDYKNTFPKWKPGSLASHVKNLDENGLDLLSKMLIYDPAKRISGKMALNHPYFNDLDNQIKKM", "assay": "ITC; higher salt, higher pH: 50 mM HEPES pH 8.0, 500 mM NaCl, 0.01% MTG, 30 °C; cyclin in the cell, unphosphorylated CDK from the syringe; one-set-of-sites model", "details": "both partners purified"}
{"binder": "B1", "values": [{"measurement": "Kd", "result": 28, "unit": "nM"}]}
